Reference: article PMC9945994 (Proceedings of the National Academy of Sciences of the …, 2023)
“And” between values parts separate entries of the source, which are not always exact repeats. Equal entries are not always repeated.

Assays:
[1] = molecular target: PscA, 82-kDa core subunit of the green sulfur bacterial reaction center (GsbRC) (Chlorobaculum tepidum TLS); assay: cryo-EM structure
[2] = molecular target: reaction center of the green sulfur bacterium Chlorobaculum tepidum (GsbRC) (Chlorobaculum tepidum TLS) (UniProt O07091)
[3] = molecular target: T1, Fenna–Matthews–Olson (FMO) protein (Chlorobaculum tepidum TLS, UniProt Q46393 1-366); assay: cryo-EM structure
T1 sequence (looked up): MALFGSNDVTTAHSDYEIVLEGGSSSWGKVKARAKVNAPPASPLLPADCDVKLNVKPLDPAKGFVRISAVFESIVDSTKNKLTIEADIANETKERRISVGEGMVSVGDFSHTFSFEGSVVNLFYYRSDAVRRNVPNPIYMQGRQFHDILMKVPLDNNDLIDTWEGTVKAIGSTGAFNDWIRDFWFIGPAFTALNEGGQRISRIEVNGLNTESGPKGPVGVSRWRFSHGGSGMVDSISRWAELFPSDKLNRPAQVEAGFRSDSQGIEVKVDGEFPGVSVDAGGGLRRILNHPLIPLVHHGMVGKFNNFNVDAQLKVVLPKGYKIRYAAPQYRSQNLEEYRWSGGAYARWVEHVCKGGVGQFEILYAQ

## PscA, 82-kDa core subunit of the green sulfur bacterial reaction center (GsbRC) (natural protein)
[1]
  stoichiometry N: 2

B1: Fenna–Matthews–Olson (FMO) protein (natural protein)
chain: T1 sequence (looked up)
[2]
  stoichiometry N: 2 and 1

B2: PscD, 17-kDa protein of GsbRC (natural protein, Chlorobaculum tepidum TLS, UniProt Q8KEP5 1-143, looked up)
chain: MQPQLSRPQTASNQVRKAVSGPWSGNAVHKAEKYFITSAKRDRDGKLQIELVPASGRRKLSPTPEMIRRLIDGEIEIYILTTQPDIAIDMNKEIIDMENRYVIDFDKRGVKWTMREIPVFYHEGKGLCVELHNKIYTLDQFFK
[3]
  binding result: binds
